Target: the molecule itself
Assay: SEC; Superdex 200 increase 10/300 GL, 50 mM potassium phosphate buffer, pH 7.0, 4°C; solution obtained after heating the apoferritin hydrogel at 90°C for 30 min; sizes estimated from a standard curve of standard proteins

B1: horse L apoferritin without eight N-terminal residues (Fer8) (domain or fragment, UniProt P02791 9-175, looked up)
chain: YSTEVEAAVNRLVNLYLRASYTYLSLGFYFDRDDVALEGVCHFFRELAEEKREGAERLLKMQNQRGGRALFQDLQKPSQDEWGTTLDAMKAAIVLEKSLNQALLDLHALGSAQADPHLCDFLESHFLDEEVKLIKKMGDHLTNIQRLVGSQAGLGEYLFERLTLKHD
notes: horse L ferritin (ferritin light chain), printed as 'without eight N-terminal residues'; theoretical [Fer8 subunit + H+] = 19148; The limit 9-end follows from 'without eight N-terminal residues'; also called recombinant horse apoferritin; Fer8 subunit; source: E. coli Nova blue cells (plasmid pKIT8), purified (heat 60°C, Q Sepharose, HiTrap Q HP, SEC); gelled by acid denaturation and …
stoichiometry N: 24
